The assay concerns the target 21480B. The assay is described as follows: Octet. On the technique in general: BLI is a label-free optical method that tracks binding on a fibre tip over time.

B1: IL2Rbeta (receptor)
chain: AVNGTSQFTCFYNSRANISCVWSQDGALQDTSCQVHAWPDRRRWNQTCELLPVSQASWACNLILGAPDSQKLTTVDIVTLRVLCREGVRWRVMAIQDFKPFENLRLMAPISLQVVHVETHRCNISWEISQASHYFERHLEFEARTLSPGHTWEEAPLLTLKQKQEWICLETLTPDTQYEFQVRVKPLQGEFTTWSPWSQPLAFRTKPAALGKD
Molecule B1 came in with a dissociation constant (Kd) of 8.1 nM.

The term Kd denotes the equilibrium constant for the complex coming apart.

The values above are taken from US20230220081A1 (published 2023).
